Data taken from a protein production outcome set (Wang et al. 2014).

Test: label from the status in PepcDB records
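Also: failed if final PepcDB status was selected cloned or expressed and not failed if soluble or beyond.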

| Sequence | protein production |
| --- | --- |
| MIGVLSGFFVVWAIILVGMFVGRRNILGENARSVLSSLTFFVASPALLFETLSKAKLHDVFAAPLLVTAVGAVVTGLLFFLIAKFWLKRAMPEALMSSMSSSLANSANLGIPIAVFVLGDASYVAPLLIFQLAFFTPLYLMALDASTSSHRTTPLRFLLMIVKNPMIVGSALGLLVAGTGFHVPTLILEPIHLIGGAAIPAMLMSFGMSLNGSKPLRKASGRRVDTLLASGFKLIVHPLIAYLFARFALGMDGHALFAVVVTSALPTAQNVFVAANRYQAGITVAKDTVLITTIVAVPAMIAVALLLT | failed |
| WVSNIDPAETFRHTELHVVKSVYDGLLTQNSNGGIEPALAHEWKMEENVMTLWLRPGIFRHDGELLSIDDVVWSLERLKQIKGPVYELWQCIETVTAETPNCLKIVLKRANQFFPYMLATPHASILCRDTASFGSGYSYHIGTGPFRISSWN | failed |
| MEGSIDHHVRKAIQIGVNPLQAIQMASLNAAECFKLAKKGAIAPGFTADLLFIEDLQSLAITHVFKNGTCVAKNGKLIVPLEHHHHHH | failed |
| TYIDGSIKRKHLVQNNQPVTLYWLRFQKSIVDTNKQDLQQSLQINTGQEPKTQALAQQILKQSDADPARYVKNILDWYRQQDFIYTLSPEQLNGNRTDQFLFQTRNGFCEHYASSFVLLMRYAGIPARVVIGYQGGQLAPDAQSLEVRQLDAHAWAEVLIDDSWHRIDPTAAIAPARLEHGMQYYLQEDRRIWGSEQHLFWKQQNFHLIQSFRVWSDYLQYQWQSKVIGYNVDQQKSFFSKLGIRSVYSAIVIMLLSICGLVIVYGIYVAYKRRGQSSFIEYQISRFQRKMSPSMKKQKSETFKVW | failed |
| REIADNTYIVLGTMTLNDFNEYFETDLESDNVDTIAGFYLTGVGTIPSQEEKEHFEVESNGKHLELINDKVKDGRVTKLKILVSE | not failed |
| MSIRSLGYLRIEATDMAAWREYGLKVLGMVEGKGAPEGALYLRMDDFPARLVVVPGEHDRLLEAGWECANAEGLQEIRNRLDLEGTPYKEATAAELADRRVDEMIRFADPSGNCLEVFHGTALEHRRVVSPYGHRFVTGEQGMGHVVLSTRDDAEALHFYRDVLGFRLRDSMRLPPQMVGRPADGPPAWLRFFGCNPRHHSLAFLPMPTSSGIVHLMVEVEQADDVGLCLDRALRRKVPMSATLGRHVNDLMLSFYMKTPGGFDIEFGCEGRQVDDRDWIARESTAVSLWGHDFTVGARG | not failed |
| MTTNSSSNTVVVYHSGYGHTHRMAEAVAEGAEATLHAIDAEGNLSEDGWAALDAADAIIFGTPTYMGGPSWQFKKFADASSKPWFSAKWQDKVFGGFTNSASLNGDKLNTLQYLVLLAGQHGGLWVSLGIKPSNLKSSVRNDANRMGSYIAPMAQSDADAAPEEMSVGDLETARLYGARVANVARQHKSTERV | not failed |
| MSQSSSPQQIPVVVLAGFLGSGKTTLLNHLLHRSGGSRIGAIVNDFGAIEIDAMAVAGALGDSTVSLGNGCLCCAVDAGELDLYLERLAHPSARVDVIVIEASGLAEPQELVRMVLASENARVVYGGLVEVVDAAEFDATRAKHPEVDRHLAMADLVVVNKIDRADDGERVLRAVRSLTDRAAVVPATYGRVDPELLFDCRPTGERIGQLSFDDLHEHRGEEDHHGHLHAAYDSVSFTSEAPMNPRRMMDFLDSRPEGLYRIKGYVDFGTADPRNRYAVHAVGRFLRFYPEPWAPAGPRLTQLVLIGSGIDTAALHKELDACTNDAPHADEHSMWGVLRYVQEQEQEQEQRQETAEAEQAG | failed |
| MKELNIALLGLGTVGSGVVKIIEENRQQIKDTINKDIVIKHILVRDKSKKRPLNISQYHLTEDINDILNDNSIDIVVEVMGGIEPTVDWLRTALKNKKHVITANKDLLAIHLKLLEDLAEENGVALKFEASVAGGIPIVNAINNGLNANNISKFMGIFNGTSNFILSKMTHEQTTFKDALEEAQRLGFAEADPTDDVEGVDAARKVVITSYLSFNQVIKLNDVKSVGISDITLADINAANSLNYKIKLIGKGTYENGYVNASVEPTLIHKNHQLAAVENEYNAIYVIGDAVGDTMFYGKGAGSLATGSAVVSDLLNVALFFESNLHTLPPHFELKTEETKEMMDGAEPVVIQEKSNYYIVISNNNKSLEKVEYDIKKKLPFHKSLQLVERDQDTYAIIVTGIETSPEKVLNQSGFNIKKVYPVEGV | failed |
| MSLKIGIIGGGSVGLLCAYYLSLYHDVTVVTRRQEQAAAIQSEGIRLYKGGEEFRADCSADTSINSDFDLLVVTVKQHQLQSVFSSLERIGKTNILFLQNGMGHIHDLKDWHVGHSIYVGIVEHGAVRKSDTAVDHTGLGAIKWSAFDDAEPDRLNILFQHNHSDFPIYYETDWYRLLTGKLIVNACINPLTALLQVKNGELLTTPAYLAFMKLVFQEACRILKLENEEKAWERVQAVCGQTKENRSSMLVDVIGGRQTEADAIIGYLLKEASLQGLDAVHLEFLYGSIKALERNTNKVEGHHHHHH | not failed |
| MPTVKLTKNITIMTGSPNTLIYDNRVVIDLGGKNSSVDINAEVQLATHGHADHIAGLLKKDAKIRYLPKEDYWSLTLMGRRAMIYGCSSKDSDIFTFDYVKENIESIDIEVRTSEIEVIKLPGHTPGHSGYIVDNVLYAGDAFFGEKVLEGFSVPFYTDFWTALESLNKVKELAKSVNNIVISHGPVYTNKNKMVSILESNIIYAQNLIGKILDMLSNNELTVEEIVVKLKQDLTPSNVLLNSVVVRSILFGLENIEYNVSQKGLVFRRRVH | failed |
| MEPVLTTKDLKHNYVDGSAELLRDPELVDPPFQVSRCAGNNRDLQTGQRSSGCVVTEIVYLSDSPYSSLNLVLRYPTTPAYPSRHFFSGLGHQMRMLSKLRFTLRSPLGLRRQPAPPPPLLVRVSLSSEPGVFIKMDLKDPASLLDLAMQCLLKNEPIIIQSLEEIPRELLIPLFCAAFLGGHKKTLTAIVKVWPFFCLHVGKLRSHETHSALLKAMIDGLQVLPAPNSASRGSKLKILDLRQDANCRTTCFPIRTKSPFCFHSCSYTQTSSRKRKGKHSTVNLGSEVQLSRYPTELLVDLSLDGTLRTSTFLSLLLSKVEQSSGALHLCCRDLQVDKLSDYNNTLKLLNLLCIDHLAVDQASLNDINTLLSQMVHLDSLSLSKITLTSLNAKIFKSFLTQLERMDNLQELNLSFFCLTNRLHKLLRVLPHDLDYLNLPFCELSYRDFRFLSQCPQAAHLKLLNLSNNPISWEDCEPLQTLMENVSGTLQHLEINHCLITDSTIFSLLPALSHCSHLRVLSFASNPITMSMLMRVLENLLPLMELKYVIYPIPVHCYERWYFQGTLDRQKLADVQVQLKAMLQAAQRGDMNWITFSE | failed |
| MSILLSKTLRELIFWMAWIIIPLIMEIIPAFGGFFILVKKSFNSNREGFIGTLPEITLIIPIYNSEATLKGCIESIYNCSYPTRLIDLILVNNMSSDDSFQVFSQCQKEFCGLSMRYMNSKQGKSKALNMALFNSAGKYIIHIDSDGKLHYDAIKNMIVRFEKNPNIHCMTGAILSDIEGIEKTHKRFLKLIRRCEFFEYAQAFLAGRNFESEINSIYTLSGAFSAFRKSTILKTQLYNSKTVCEDTHITFQVRRLLKKKVYLCENSIFFVDPIENLNKLYTQRQRWQRGEIEVSHMFFKNKMNSPLGFFHNFMIRVVMYDHTFAFPRMIWYFAIIFLFFMNYPVKLVVGSLVIIYMLYVLSTFLFYLNVRIYLKEYKSIREYYKARWGYIFLMPIYNFVVFWIRFAGIINSIKIKSKWKTLTLNDEWTAFLKVIQSDFRMIGKGINKIRRLVND | failed |
| MSKLIFSVLISVYYNESISYFKKSLDSILYQTLLPAEVVLVKDGILTDDLNCIVKEYSQKYPILKVISLPVNQGLGKALNEGLKHCSYDLVARMDTDDIAKPDRFEKQIRVFQEHPELDVVGAWIDEFEETTSNIISTRKLPEVHDDICQFAKKRNPENHPVIMFRKQAVLAAGGYQHFPLFEDYYLWIRMLQNGAKFYNIQESLLYFRFSPAMFKRRGGLKYVTTELRFQNQLRNLGFITSSEYLYNVFIRVITRMMPNTLRAILYKKALRK | failed |
| MGDKEESKKFSANLNGTEIAITYVYKGDKVLKQSSETKIQFASIGATTKEDAAKTLEPLSAKYKNIAGVEEKLTYTDTYAQENVTIDMEKVDFKALQGISGINVSAEDAKKGITMAQMELVMKAAGFKEVKLEHHHHHH | not failed |
| MMGRVAMLTGSRGLRYATVIALVAALVGGVYVLSSTGNKRTIVGYFTSAVGLYPGDQVRVLGVPVGEIDMIEPRSSDVKITMSVSKDVKVPVDVQAVIMSPNLVAARFIQLTPVYTGGAVLPDNGRIDLDRTAVPVEWDEVKEGLTRLAADLSPAAGELQGPLGAAINQAADTLDGNGDSLHNALRELAQVAGRLGDSRGDIFGTVKNLQVLVDALSESDEQIVQFAGHVASVSQVLADSSANLDQTLGTLNQALSDIRGFLRENNSTLIETVNQLNDFAQTLSDQSENIEQVLHVAGPGITNFYNIYDPAQGTLNGLLSIPNFANPVQFICGGSFDTAAGPSAPDYYRRAEICRERLGPVLRRLTVNYPPIMFHPLNTITAYKGQIIYDTPATEAKSETPVPELTWVPAGGGAPVGNPADLQSLLVPPAPGPAPAPPAPGAGPGEHGGGG | failed |
| MSDKFNQFINRVLSHEGGYANHPKDPGGETNWGITKRTAQANGYNGSMRAMTREQAISIYRKAFWERYRADQMPEAVAFQFFDACVNHGYGNAARMLQRAAGVPDDGVIGAVSLKAINSLPENDLLLRFNAERLVFYTKLGTFTSFGKGWVRRVAQNLIHASADNTD | not failed |
| MLSIEVTVFAAIAYLTILFSIAYRGDRGASNRVRPYRYSLAQGVHCTSWAFFGTITQSAYYGWAFAPTYVGAIIVFILLHSLQLKLLNYCKHQNITSIADLIGTRYGKSPVLAGVVAITAFIAVVPYISLQLRAVTSSFATVTGFDTNPSWIFDLSFLVALTMIGFGFLFGTRRLSLAEQHSGLMDAIAFESLVKLAAFIIVGLFASYTVFDGLADLFQKSFETQHTQDVLAGREYGGYVFAVHMLLGGLSMFSLPRQFHVGYVENTHSDELKTARWAFPLYLFAINFFILPLSLSALHLAPELANQDTFMLVIPLMMDRPDITLIAFIGGLSAATSMVIIALLALSIMVSNDVVMPIWLRMTRQKLRQFSFTPTRILSIRRMTMVVVMFMAYLYYQATIESMPLVNSGLLSLALLTQLTPAILATVLWRSATQTGVLVGLVVGTALWVILLLVPSIGLQPQVTDIDIANGVLISLGANLICFWLFSLISKNVQTDLQSIQSSDDYEQQPSLTWARLRSLLSRFYDDRQLAAIQRRLRMDLLTPEGQSMVPAPMLVRIERELSAVIGTSASRLLLDTVSEQQEFPVSRVVDWATEASKLYQFNRELLQASVENIPQGISVVDQKLRLVAWNRRYLEIFDYPDGLVRAGMPVEELLRYNARRGLLSNSQNTDVEAEIQKRLNFLRTGSTYHYQRQQGELTVELQGSPMPGGGFVTTYSDITERVEAQRQLQKINQELEERVDERTQQLLSAKEAEEKAHESKSRFFAAVSHDLMQPFNAASLFCEMLQSRLPNEYLPLAVNIQRSLDHAEELLTMLLDMTKLDAGNLKPDYQEFSIDQALLPLVERYQAMAKEKQLRFHYHKSSALVKTDRKLLNRIIQNLLSNALRYTQHGRIVLGFRRHQQHLTICIIDTGSGIPEHKQTEIFREFHQLQSSGDNPGLGLGLSIVERMCRLLRIDLSLSSTLDKGTAFSLTLPVIGWQKEPQPVVIKNDSVDEKLLKDMRVLVIDNDPGVLKATAGLLTDWGAETMTASSFDQARKHPPCDLILADYHLDNGNTGIELVVSIRKLWNSNTPAIINSADPDELLREQALEANAYFIPKPLKSGALKRLLKRIRRI | failed |
| SVVAKVKIPEGTILTMDMLTVKVGEPKGYPPEDIFNLVGKKVLVTVEEDDTIMEELVDNHGKKIKS | not failed |
| MLEHFRAGWAKVMNPIADALLRAHVTPDVVTWIGTIGAVLMALICFPQGWLWQGPWLVTLFIFSDSLDGNMARKLGRHSQWGSFLDSTLDRFGDAAIFTGVALYFAGPGNSVLWTAMACAALVFGMATSYVRAKAESLALEAKVGIATRADRLLVSLVAIEITGLARVGAFPHWCVVALPIALCYLTLAGAITVVQRMVAVRRACES | failed |
